Assay results from patent US6248554, “DNA sequence coding for a BMP receptor” (The Procter & Gamble Company, dated 2001).

T1: bone morphogenetic protein 2 (Homo sapiens (Human), UniProt P12643)
T1 sequence: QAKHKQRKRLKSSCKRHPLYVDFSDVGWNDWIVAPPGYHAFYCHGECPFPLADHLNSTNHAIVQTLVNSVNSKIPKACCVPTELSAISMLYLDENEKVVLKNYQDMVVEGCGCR

T2: digit-removed BMP-2 (Homo sapiens (Human), UniProt P12643, 125I label by the chloramine-T method)
T2 sequence: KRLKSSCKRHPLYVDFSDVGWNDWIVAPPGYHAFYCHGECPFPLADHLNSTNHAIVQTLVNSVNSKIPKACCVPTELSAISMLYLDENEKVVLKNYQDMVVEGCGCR

B1: BMP receptor kinase protein-1 (receptor)
chain: QNLDSMLHGTGMKSDLDQKKPENGVTLAPEDTLPFLKCYCSGHCPDDAINNTCITNGHCFAIIEEDDQGETTLTSGCMKYEGSDFQCKDSPKAQLRRTIECCRTNLCNQYLQPTLPPVVIGPFFDGSIRWLVVLISMAVCIVAMIIFSSCFCYKHYCKSISSRGRYNRDLEQDEAFIPVGESLKDLIDQSQSSGSGSGLPLLVQRTIAKQIQMVRQVGKGRYGEVWMGKWRGEKVAVKVFFTTEEASWFRETEIYQTVLMRHENILGFIAADIKGTGSWTQLYLITDYHENGSLYDFLKCATLDTRALLKLAYSAACGLCHLHTEIYGTQGKPAIAHRDLKSKNILIKKNGSCCIADLGLAVKFNSDTNEVDIPLNTRVGTKRYMAPEVLDESLNKNHFQPYIMADIYSFGLIIWEMARRCITGGIVEEYQLPYYNMVPSDPSYEDMREVVCVKRLRPIVSNRWNSDECLRAVLKLMSECWAHNPASRLTALRIKKTLAKMVESQDVKI
B2: bone morphogenetic protein 4 (ligand)
chain: SPKHHSQRARKKNKNCRRHSLYVDFSDVGWNDWIVAPPGYQAFYCHGDCPFPLADHLNSTNHAIVQTLVNSVNSSIPKACCVPTELSAISMLYLDEYDKVVLKNYQEMVVEGCGCR
modifications: 125I label by the chloramine-T method where used as tracer

Experiments:
[1] = target: T1, bone morphogenetic protein 2; experiment: competition: 10 nM unlabelled BMP-2 greatly reduces the band of [125I]-BMP-4 or [125I]-DR-BMP-2 crosslinked to BRK-1
Source text: (§1) In this method, the bifunctional crosslinking reagent disuccinimidyl suberate (DSS) (Pierce Chemical, Rockford, Ill.) is used to covalently crosslink bound radiolabeled ligand to its receptor by reaction with free amino groups on lysine residues in the two proteins. Following the crosslinking, cellular proteins are separated by gel electrophoresis, and radioactive bands visualized. The labeled bands represent the receptor selectively "tagged" with the radiolabeled ligand. In this procedure, cells are transfected with pJT4-J159F as described in example 7, then seeded into 12 well plates at 670,000 cells/well. Media is changed after 24 hr. At 48 hr after electroporation, the cells are washed, equilibrated, and incubated with [^125I]-BMP-4 or [^125I]-DRBMP-2 and competing unlabeled ligands as described in this example for whole cell binding studies.
(§2) After completion of the 4 hour incubation with ligand, the cells are washed three times at 4° C. with 2 ml of binding buffer having the same composition as described above, except that no BSA is added. To each well is then added 1 ml of fresh BSA-free binding buffer, followed by freshly prepared DSS to a final concentration of 135 μM. After swirling gently to mix the DSS, the plates are incubated for exactly 15 minutes at 4° C. with gentle shaking. […]

[2] = target: B2; experiment: saturation binding of [125I]-BMP-4 (10-1000 pM) on COS-7 cells transfected with BRK-1, nonspecific binding with 10 nM unlabelled BMP-4, LIGAND software
Description: For whole cell binding experiments, COS-7 cells are transfected with pJT4-J159F as described in example 7. After electroporation, cells are seeded in 12 well plates at 670,000 cells/ell. Media is changed after 24 hr, and binding experiments are carried out at 48 hr. At that time, cells are washed once with binding buffer (50 mM Hepes buffer, pH 7.4, 128 mM NaCl, 5 mM KCl, 5 mM MgSO_4, 1.2 mM CaCl_2, 2 mg/ml BSA), then equilibrated in the same buffer at 4° C. for 30 min with gentle shaking. The buffer is then aspirated, and to each well is added 500 µl of binding buffer (4° C.), containing [^125I]-BMP-4 tracer (100 pM), as well as varying concentrations of unlabeled BMP-2, BMP-4, or other unlabeled ligand, depending on the assay. For determination of nonspecific binding, BMP-2 is added to the binding buffer at a final concentration of 10 nM. […] The solubilized cells are then transferred to fresh tubes and counted in a Packard Model 5005 "COBRA" Gamma Counter (Packard Instrument Co., Downers Grove, Ill.).
In order to obtain a more quanitative characterization of binding to BRK-1, a saturation binding analysis is performed on COS-7 cells transfected with the cDNA for BRK-1, using the construct pJT4-J159F. Binding of [^125I]-BMP-4 is examined over a concentration range of 10–1000 pM, with nonspecific binding determined with 10 nM unlabeled BMP-4.

digit-removed BMP-2 = target: T2, digit-removed BMP-2; experiment: DSS crosslinking on transfected COS-7 cells, SDS-PAGE
Source text: as §1, §2

[3] = target: B1; experiment: whole cell binding of [125I]-BMP-4 (100 pM), nonspecific binding with 10 nM BMP-2, COS-7 cells transfected with pJT4-J159F
Description: The detached cells are pelleted in a tabletop centrifuge, then resuspended in fresh media at a concentration of 6.25 ×10^6 cells/ml. The cell suspension (5 ×10^6 cells, 0.8 ml) is transferred to the cuvette from a BioRad "GENE PULSER" electroporation system (BioRad, Hercules, Calif.). The purified DNA plasmid (10 μg) is added to the cuvette, and the cells subjected to electoporation at 4.0 kV/cm, with a capacitance of 25 μFd. Cells are then plated and allowed to recover. Fresh media is supplied after 24 hr. At 48 hr, cells are ready to be tested for binding of BMP-4.
For whole cell binding experiments, COS-7 cells are transfected with pJT4-J159F as described in example 7. After electroporation, cells are seeded in 12 well plates at 670,000 cells/ell. Media is changed after 24 hr, and binding experiments are carried out at 48 hr. At that time, cells are washed once with binding buffer (50 mM Hepes buffer, pH 7.4, 128 mM NaCl, 5 mM KCl, 5 mM MgSO_4, 1.2 mM CaCl_2, 2 mg/ml BSA), then equilibrated in the same buffer at 4° C. for 30 min with gentle shaking. […] The solubilized cells are then transferred to fresh tubes and counted in a Packard Model 5005 "COBRA" Gamma Counter (Packard Instrument Co., Downers Grove, Ill.).

binding result [1]	Kd [2] [pM]	binding result (digit-removed BMP-2)	specific binding relative to mock-transfected COS-7 cells [3] [times]	Binder
binds	500	binds		B1
			3	B2
